Test: label from the status in PepcDB records

| Sequence | protein production |
| --- | --- |
| MGFTTDKIRTIAVAGHGQSGKTSLVEHLLYVSGLIAKAESVDSGKTVTDYSQEEIDRKISIYSTLVNLQKDDKLINIWDTPGASDFIGEVIAAFRSSEAALIVLDGRSGVQIETIKYWRDLDRRNKPRLVFANKMDEARADFDNCIADVKKQFQVDVFPVSFPMGTGDNFKGVVDVLHGKAYKIEDGKEVETEIPAEYQDKYKDALEVLAGAAAEGDEELLVKFIDEGELSPEEISRGLTLAMADNRIVPLFAGSAINNSGLNSLLRFISEILPSPEGALERGVTKEGEEISVKLDSSAPLSAIVVKTSNDQFSGRLSYVKVITGTLSADSEVYNLREEKKERVGKIYKTLGKKLTEVKEIAAGDIGVLVKLTSTKTNDTLAASADVIPFVRLRTPEPIYSLAVSAIDKKNDDKVSEQLFKACEEDMTLSFAFNAETKQNVLSGMGDLHTSIVLDKVKNQSKIEIQTSIPRIAYRETIQRKSQAEYTHKKQSGGHGQFGRVVLAIEPLPRGEKYKFTNAVFGGAISKGYIPGVEKGVIEAMEKGVSAGYPVVDVAVTVLDGKEHPVDSSEMAFKIAARNAFKDAMRNAGPILLEPIMNLTVFVETSYLGDIMSDLSSRRGRILGQSSPASGIEEIRAQVPHKELLRYAIDLRSMTSGTGSFEMSFDHYDPISGKIADEIIAEAKAFMEEQEE | failed |
| MGGGPALNRDSSRHARPFISSPVKTLAIIPAFNEAQAIGPVLGDLPDGWVDEVVVVNNASTDATKANARAAGATVVDEPQQGYGAACLRGIAYAETRQPDVVVFLDGDYSDHPEELPRLVEPIAADEADFVVGSRIRGDAEPGALLPQAQVGNRFACSLMARLWGADYTDLGPFRAIRFRDLLALDMQDETFGWTIEMQIRALEAGLRVEEVPVSYRRGIGPSKITGTLSGTVKASAKILWTIGRMAATTHRRAPRLRERVDRARTDAPTPNPGGLEHHHHHH | failed |
| MGGGRQILHTLEQDVYFSHAHRVEIPASVTAHLFYQHFGYRPKPGGIYPDDEGLYRLEKFPHESFH | failed |
| MGGHFWPPEPYTVFMWGSPWEADSPRVKLRGREKGRQTEGGAFPLVSSALSGDPRFFSPTTPPAEPIVVRLKEVRLQRDDFEILKVIGRGAFSEVAVVKMKQTGQVYAMKIMNKWDMLKRGEVSCFREERDVLVNGDRRWITQLHFAFQDENYLYLVMEYYVGGDLLTLLSKFGERIPAEMARFYLAEIVMAIDSVHRLGYVHRDIKPDNILLDRCGHIRLADFGSCLKLRADGTVRSLVAVGTPDYLSPEILQAV | failed |
| MGGIYRLSLKSTEATAERLSCDTRCNYEDRDLAYSPDGRWLAIARRFSNISEDIFIRDLASAHEKRLTQGLEDIRGLSWTPDSQALVFATEDSGSSNGFTLDINTAQIRSLDVEGMSYPSSVSAEGELVYHQYHRQFQMAYFSLGDKVPGSLFPLLYSGVSHRNPDYSPEAKRIVFVSSETGYNEIWTSDINGQKLEQLTQLKSRVAYPRWSPDGSRIAFIAPDDRNEGNRIFILDLTNKNITALASSYHNHGRPSWNWQGTAVLASTADGITEFYLDNRAPRVISSLSMAVGFAKSATELVFSRDGENGLWQINLTQPEHVEQLISTDAFRAGNNWVLTASGVYFKSSNGHEQLLNYWEASSQQVTSLLRVPRSSLSGFGSMTYIPEANRLVMTLDGFPQRDIILLKHKLLKLEHHHHHH | failed |
| MGGKLVSFIRSRLEIVQNIAAEDEGCKKAYYCMGSPLFALNAERMENNLVTLSGGISINKQLQKKGKPGVNVSPAFINEHNPEAIFISSFLSRPLNEFYELCQKYGIHADAVKKRQVYAVPAAWDFGNPRWILGLLYITDKLHPGKLEHHHHHH | failed |
| MGGNRQQEIASGCCLVAEQHDQVVAYASYQPTGLLGQPLLTYLCVAPAMRGQGIAKQLVETIQGQARGRMLLSSTEDWCLASQKIFTDLGWRKIGALAGVNKDGSTEYFYAVDLNH | failed |
| MGGSNMKLDFSVAVHSILYLDAHRDSKVASRELAQSLHLNPVMIRNILSVLHKHGYLTGTVGKNGGYQLDLALADMNLGDLYDLTIPPTISYARFITGPSKTDEQADQSPIAANISETLTDLFTVADRQYRAYYHQFTMADLQADLNHHGTFLQHEQDSES | not failed |
| MGHHHHHHSHESVVPARMAEMARCIRERDFPSFAQLTMKDSNQFHATCLDTFPPISYLNAISWRIIHLVHRFNAHHGDTKVAYTFDAGPNAVIFTLDDTVAEFVAAVWHGFPPGSNGD | failed |
| MGHHHHHHSHGFNKFGGPRDQGSRHDSEQDNSDNNTIFVQGLGENVTIESVADYFKQIGIIKTNKKTGQPMINLYTDRETGKLKGEATVSFDDPPSAKAAIDWFDGKEFSGNPIKVSFAT | failed |
| MGHHHHHHSHHTTEAKNDLRVGGRFVSKMEAKDGSFGFDFGGTYNKVRLYEFISYIMDDDRSVEITFKPEKDKTYIVESFEAEKSNPIDLQQKGWQAILDNFKKYVEENKLRGREK | failed |
| MGHHHHHHSHMANGTAGTKVALRKTKQAAEKISADKISKEALLECADLLSSALTEPVPNSQLVDTGHQLLDYCSGYVDCIPQTRNKFAFREAVSKLELSLQELQVSSAAAGVPGTNPVLNNLLSCVQEISDVVQR | failed |
| MGHHHHHHSHMATGQDRVVALVDMDCFFVQVEQRQNPHLRNKPCAVVQYKSWKGGGIIAVSYEARAFGVTRSMWADDAKKLCPDLLLAQVRESRGKANLTKYREASVEVMEIMSRFAVIERASIDEAYVDLTSAVQERLQKLQGQPISADLLPSTYIEGLPQGPTTAEETVQKEGMRKQGLFQWLDSLQIDNLTSPDLQLTVGAVIVEEMRAAIERETGFQCSAGISHNKVLAKLACGLNKPNRQTLVSHGSVPQLFSQMPIRKIRSLGGKLGASVIEILGIEYMGELTQFTESQLQSHFGEKNGSWLYAMCRGIEHDPVKPRQLPKTIGCSKNFPGKTALATREQVQWWLLQLAQELEERLTKDRNDNDRVATQLVVSIRVQGDKRLSSLRRCCALTRYDAHKMSHDAFTVIKNCNTSGIQTEWSPPLTMLFLCATKFSASAP | failed |
| MGHHHHHHSHMDEQSVESIAEVFRCFICMEKLRDARLCPHCSKLCCFSCIRRWLTEQRAQCPHCRAPLQLRELVNCRWAEEVTQQLDTLQLCSLTKHEEN | not failed |
| MGHHHHHHSHMGEIESYCNKELGPLPTKAPTLSKNVLDLFSLKGKVASVTGSSGGIGWAVAEAYAQAGADVAIWYNSHPADEKAEHLQKTYGVHSKAYKCNISDPKSVEETISQQEKDFGTIDVFVANAGVTWTQGPEIDVDNYDSWNKIISVDLNGVYYCSHNIGKIFKKNGKGSLIITSSISGKIVNIPQLQAPYNTAKAACTHLAKSLAIEWAPFARVNTISPGYIDTDITDFASKDMKAKWWQLTPLGREGLTQELVGGYLYLASNASTFTTGSDVVIDGGYTCP | failed |
| MGHHHHHHSHMGKKLLVLDVDYTLFDHRSCAETGVELMRPYLHEFLTSAYEDYDIVIWSATNMKWIEAKMKELGVSTNANYKITFMLDSAAMITVHTPRRGLIDVKPLGVIWGKFSEFYSKKNTIMFDDIGRNFLMNPQNGLKIRPFMKAHLNRDKDKELLKLTQYLKEIAKLDDFLDLNHKY | failed |
| MGHHHHHHSHMGRCYNNIVIDASIEAVWQQIGNFHDMSWAKGVITSLVKVGPASGTEVGAKRILNDAIHETLVSLDSSNYTFTYSIDDGPDAIAKSAVDNYLGMVNLSESSTGVLVEWSSSFTSDNEKAVTEFCDP | failed |
| MGHHHHHHSHMIDSIRVEGFRGLKELELSSLRRINVIVGRNNSGKSTLLEALSLFLGSSDPGTFGNVLHEILIWRGWYGIQTVDDLFYNGGDSFSISSTGKTLEALNSKHSLEFKLNGEPFYKIDRESIRRLASQAVLLARFSPKENFEFLTPLTFRRFGYAESLYSYAYERKVVKDSIKVLNEAYPEVEGFSPLLKEDNWVLYVETKYGVYPYYLMGEGFKSAMIISFLSSLLRDGVLLIDSAEAFHHP | failed |
| MGHHHHHHSHMIESGIWSRMSEMIRSSGHSHHCSPQEYRFLPPVGDDDLPGDLQSLSWLTAVDVPRLQQMANGRIDLGSSGVTHPHPGALAGTADLHVGAAPRPLLRRSQTAVVPRGVLGLSPIGNHRASAEQMNQFPAGGQASSGLQEMPQLYSPATQIPFPLPLGSQQCPPAGLYGSPFSARPSYPQAHGAMHASQEPHPKHYPKPIYSYSCLIAMALKNSKTGSLPVSEIYSFMKEHFPYFKTAPDGWKNSVRHNLSLNKCFEKVETKSSGSSRKGCLWALNLARIDKMEEEMHKWKRKDLAAIHRSMANPEELDKLISDRPESCRRPGKRGEPKAPMLTHATTVAMAHSCLAISQLPPKPLMTLSLQSVPLHHQLQPQAHLAPDSPAPAQTPPLHALPSLSPGPLPQPAMGRVPGDFLNINSDMNTEVDALDPSIMDFALQGNLWEEMKEDSFSLDTLEAFGDSPLGCDLGAPSLTPVSGNSDQSFPDVQVTGLYAAYSTAADGVAPSAANSAQYLGTPGNKPIALL | failed |
| MGHHHHHHSHMKPSGEDQAALAAGPWEECFQAAVQLALRAGQIIRKALTEEKRVSTKTSAADLVTETDHLVEDLIISELRERFPSHRFIAEEAAASGAKCVLTHSPTWIIDPIDGTCNFVHRFPTVAVSIGFAVRQELEFGVIYHCTEERLYTGRRGRGAFCNGQRLRVSGETDLSKALVLTEIGPKRDPATLKLFLSNMERLLHAKAHGVRVIGSSTLALCHLASGAADAYYQFGLHCWDLAAATVIIREAGGIVIDTSGGPLDLMACRVVAASTREMAMLIAQALQTINYGRDDEK | failed |
| MGHHHHHHSHMQDRRSVCIFLPNDESLNIIINVKILCHQLLVQVCDLLRLKDCHLFGLSVIQNNEHVYME | not failed |
| MGHHHHHHSHMSFVECPYHSPAERLVAEADEGGPSAITGMGLCFRCLLFSFSGRSGVEGGRVDLNVFGSLGLQPWIGSSRCWGGPCSSALRCGWFSSWPPPSKSAIPIGGGSRGAGRVSRWPPPHWLEAWRVSPRPL | failed |
| MGHHHHHHSHMSIPSSQYGFVFNKQSGLKLRNDLPVHKPKAGQLLLKVDAVGLCHSDLHVIYEGLDCGDNYVMGHEIAGTVAAVGDDVINYKVGDRVACVGPNGCGGCKYCRGAIDNVCKNAFGDWFGLGYDGGYQQYLLVTRPRNLSRIPDNVSADVAAASTDAVLTPYHAIKMAQVSPTSNILLIGAGGLGGNAIQVAKAFGAKVTVLDKKKEARDQAKKLGADAVYETLPESISPGSFSACFDFVSVQATFDVCQKYVEPKGVIMPVGLGAPNLSFNLGDLALREIRILGSFWGTTNDLDDVLKLVSEGKVKPVVRSAKLKELPEYIEKLRNNAYEGRVVFNP | not failed |
| MGHHHHHHSHMTDCEFGYIYRLAQDYLQCVLQIPQPGSGPSKTSRVLQNVAFSVQKEVEKNLKSCLDNVNVVSVDTARTLFNQVMEKEFEDGIINWGRIVTIFAFEGILIKKLLRQQIAPDVDTYKEISYFVAEFIMNNTGEWIRQNGGWENGFVKKFEPK | not failed |
| MGHHHHHHSHMVLSQNTKRESGRKVQSGNINAAKTIADIIRTCLGPKSMMKMLLDPMGGIVMTNDGNAILREIQVQHPAAKSMIEISRTQDEEVGDGTTSVIILAGEMLSVAEHFLEQQMHPTVVISAYRKALDDMISTLKKISIPVDISDSDMMLNIINSSITTKAISRWSSLACNIALDAVKMVQFEENGRKEIDIKKYARVEKIPGGIIEDSCVLRGVMINKDVTHPRMRRYIKNPRIVLLDSSLEYKKGESQTDIEITREEDFTRILQMEEEYIQQLCEDIIQLKPDVVITEKGISDLAQHYLMRANITAIRRVRKTDNNRIARACGARIVSRPEELREDDVGTGAGLLEIKKIGDEYFTFITDCKDPKACTILLRGASKEILSEVERNLQDAMQVCRNVLLDPQLVPGGGASEMAVAHALTEKSKAMTGVEQWPYRAVAQALEVIPRTLIQNCGASTIRLLTSLRAKHTQENCETWGVNGETGTLVDMKELGIWEPLAVKLQTYKTAVETAVLLLRIDDIVSGHKKKGDDQSRQGGAPDAGQE | failed |

From a protein production outcome set (Wang et al. 2014)
